Paper PMC3392491

Molecular target: T1, Dda K38A (bacteriophage T4, UniProt P32270 1-439, K38A)
T1 sequence: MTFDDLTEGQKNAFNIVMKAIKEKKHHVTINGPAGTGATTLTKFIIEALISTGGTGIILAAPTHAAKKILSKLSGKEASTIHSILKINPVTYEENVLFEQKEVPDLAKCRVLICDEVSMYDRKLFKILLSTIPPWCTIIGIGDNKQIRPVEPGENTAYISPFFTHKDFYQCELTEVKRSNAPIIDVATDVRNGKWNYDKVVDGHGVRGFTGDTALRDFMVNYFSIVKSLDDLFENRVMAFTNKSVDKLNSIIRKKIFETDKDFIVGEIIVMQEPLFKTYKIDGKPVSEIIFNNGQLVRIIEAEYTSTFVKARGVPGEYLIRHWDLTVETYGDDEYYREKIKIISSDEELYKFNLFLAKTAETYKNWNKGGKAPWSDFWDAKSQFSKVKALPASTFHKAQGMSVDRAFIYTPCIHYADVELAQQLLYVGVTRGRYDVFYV
Assay: X-ray crystallography

TTTTTTTT (ssDNA) [dT8]: binds.
